Test [1] has as its target integrin complement receptor 3 (CR3) on human leukocytes (human) (UniProt P11215).
The target is the same in test [2]. The source holds these as a separate data set.
The target is the same in test [3]. The source holds these as a separate data set.
For test [4] the target is unchanged. The test can be described thus: competition: 125I-Factor X binding to fMLP-stimulated human neutrophils.
Test [5] has the same target. The source holds these as a separate data set.
For test [6] the target is unchanged. This is another data set of the same source.
The target is the same in test [7]. The test can be described thus: macrophages spread on antibody-coated wells; residual CD11b/CD18 detected with C3bi-coated erythrocytes.

Like-named read-outs stand apart in the source and are kept apart here.

On to “Filamentous hemagglutinin (FHA) of Bordetella pertussis, native purified protein (from UniProt P12255) (ligand)”, for which the % inhibition of 125I-Factor X binding in test [1] worked out at 70%. For the same substance, in test [2], the % Inhibition of TEM (transendothelial migration of neutrophils) was found to be 82%. The substance also displayed a concentration at which inhibition of neutrophil adherence was lost in test [3] of 0.001 µM. In test [4], this substance had an IC50 of 100 nM.

On to “mAb W6/32 against HLA class I antigen (antibody)”, for which the inhibition of transendothelial migration of neutrophils in test [5] came out at 6%.

On to mAb IB4 against CD18 (antibody), for which, in test [6], the inhibition of neutrophil adherence to TNF-stimulated HUVEC came out at 38%. Also, the % reduction of the binding of C3bi-coated erythrocytes to macrophages in test [7] is 67%. This substance also gave a % inhibition of 125I-Factor X binding in test [4] of 53%. The inhibition of transendothelial migration of neutrophils in test [5] turned out to be 73%.

The values are drawn from patent US6015560.
